Patent US20210139548A1 (published 2021)
*1 amine or outer side, *2 acyl side, *3 side chain or, on linkers, in order; H or OH if unused. Side-chain parts run from the residue outwards. The star is where a group is joined. C18 diacid = O=C(O)CCCCCCCCCCCCCCCCC(=O)*; γGlu = O=C(O)[C@H](CCC(=O)[*:2])N[*:1]; Isovaleryl = CC(C)CC(=O)*; AEEA = NCCOCCOCC(=O)O

T1: human neuropeptide Y2 receptor (human, UniProt P49146 1-381)
T1 sequence (looked up): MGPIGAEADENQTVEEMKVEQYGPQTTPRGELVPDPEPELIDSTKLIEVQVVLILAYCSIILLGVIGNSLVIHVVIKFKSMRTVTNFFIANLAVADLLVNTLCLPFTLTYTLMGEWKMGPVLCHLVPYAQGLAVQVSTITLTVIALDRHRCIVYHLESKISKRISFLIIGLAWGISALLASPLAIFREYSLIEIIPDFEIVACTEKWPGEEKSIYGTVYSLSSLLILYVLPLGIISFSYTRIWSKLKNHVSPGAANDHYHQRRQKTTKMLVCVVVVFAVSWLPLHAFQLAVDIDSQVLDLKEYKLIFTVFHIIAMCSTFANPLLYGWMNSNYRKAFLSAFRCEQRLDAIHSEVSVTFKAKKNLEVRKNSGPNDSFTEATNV

T2: human NPY5 receptor (human, UniProt Q15761 1-445)
T2 sequence (looked up): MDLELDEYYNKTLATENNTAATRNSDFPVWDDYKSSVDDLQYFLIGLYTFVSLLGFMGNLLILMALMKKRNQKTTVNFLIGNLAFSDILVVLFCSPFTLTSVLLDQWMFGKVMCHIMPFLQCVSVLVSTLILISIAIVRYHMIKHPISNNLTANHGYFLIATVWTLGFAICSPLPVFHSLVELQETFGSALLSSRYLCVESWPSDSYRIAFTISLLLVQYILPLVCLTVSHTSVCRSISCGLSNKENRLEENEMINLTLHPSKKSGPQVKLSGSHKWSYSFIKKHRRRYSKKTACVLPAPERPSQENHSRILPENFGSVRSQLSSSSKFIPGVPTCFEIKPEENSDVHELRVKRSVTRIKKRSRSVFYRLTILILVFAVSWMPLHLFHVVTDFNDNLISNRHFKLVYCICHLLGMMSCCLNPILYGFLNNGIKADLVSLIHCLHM

T3: human NPY1 receptor (human, UniProt P25929 1-384)
T3 sequence (looked up): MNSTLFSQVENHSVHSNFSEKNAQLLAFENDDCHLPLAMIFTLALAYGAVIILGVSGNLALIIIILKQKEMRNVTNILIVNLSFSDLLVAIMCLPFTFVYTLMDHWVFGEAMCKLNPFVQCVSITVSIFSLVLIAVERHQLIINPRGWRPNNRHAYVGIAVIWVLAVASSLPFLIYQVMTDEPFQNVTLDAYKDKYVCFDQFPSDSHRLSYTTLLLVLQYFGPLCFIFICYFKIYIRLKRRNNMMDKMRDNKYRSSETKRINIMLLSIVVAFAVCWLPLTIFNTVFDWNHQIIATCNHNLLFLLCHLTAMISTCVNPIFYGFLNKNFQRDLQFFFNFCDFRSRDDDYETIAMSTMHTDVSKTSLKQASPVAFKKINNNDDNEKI


Assays:
[1] = biological target: T1, human neuropeptide Y2 receptor; test: cell-based or functional assay
[2] = biological target: T2, human NPY5 receptor; test: cell-based or functional assay
[3] = biological target: human NPY4 receptor (human, UniProt P50391 1-375); test: cell-based or functional assay
Chain of human NPY4 receptor (P50391 whole entry): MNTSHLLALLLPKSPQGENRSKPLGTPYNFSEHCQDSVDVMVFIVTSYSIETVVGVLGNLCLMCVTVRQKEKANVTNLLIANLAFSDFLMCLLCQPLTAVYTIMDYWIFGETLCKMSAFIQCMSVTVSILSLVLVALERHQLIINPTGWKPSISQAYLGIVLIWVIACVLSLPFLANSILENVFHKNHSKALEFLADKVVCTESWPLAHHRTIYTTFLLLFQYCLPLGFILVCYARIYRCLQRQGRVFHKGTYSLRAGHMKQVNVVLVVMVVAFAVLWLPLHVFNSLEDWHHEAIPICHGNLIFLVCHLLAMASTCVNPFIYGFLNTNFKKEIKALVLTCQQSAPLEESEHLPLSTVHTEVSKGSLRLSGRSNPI

[4] = biological target: T3, human NPY1 receptor; test: cell-based or functional assay
[5] = biological target: T1, human neuropeptide Y2 receptor; test: radioligand competition (125I-PYY(1-36)), hNPY2R membranes
In short: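 Commercial human Y2 receptor membranes (0.5 μg protein/well) were incubated with peptide for 2 h at room temperature in 50 mM HEPES, 5 mM MgCl₂, 1 mM CaCl₂, pH 7.4, with 0.2% ovalbumin. Bound radioligand was separated on PEI-soaked GF/C filters and counted by scintillation, and IC₅₀ came from nonlinear sigmoidal regression.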

EC50 (HTRF cAMP Gi assay) [1]	EC50 (HTRF cAMP Gi assay) [2]	EC50 (HTRF cAMP Gi assay) [3]	EC50 (HTRF cAMP Gi assay) [4]	Ki [5]	Binder
0.334 nM	> 5000 nM	> 5000 nM	> 5000 nM	0.74 nM	Isovaleryl-APEK([AEEA-AEEA-γGlu-C18 diacid])PEEDASPEEIQQYYVSLRHYYNWLTRQRY-NH2 (SMILES CC[C@H](C)[C@H](NC(=O)[C@H](CCC(=O)O)NC(=O)[C@H](CCC(=O)O)NC(=O)[C@@H]1CCCN1C(=O)[C@H](CO)NC(=O)[C@H](C)NC(=O)[C@H](CC(=O)O)NC(=O)[C@H](CCC(=O)O)NC(=O)[C@H](CCC(=O)O)NC(=O)[C@@H]1CCCN1C(=O)[C@H](CCCCNC(=O)COCCOCCNC(=O)COCCOCCNC(=O)CC[C@H](NC(=O)CCCCCCCCCCCCCCCCC(=O)O)C(=O)O)NC(=O)[C@H](CCC(=O)O)NC(=O)[C@@H]1CCCN1C(=O)[C@H](C)NC(=O)CC(C)C)C(=O)N[C@@H](CCC(N)=O)C(=O)N[C@@H](CCC(N)=O)C(=O)N[C@@H](Cc1ccc(O)cc1)C(=O)N[C@@H](Cc1ccc(O)cc1)C(=O)N[C@H](C(=O)N[C@@H](CO)C(=O)N[C@@H](CC(C)C)C(=O)N[C@@H](CCCNC(=N)N)C(=O)N[C@@H](Cc1c[nH]cn1)C(=O)N[C@@H](Cc1ccc(O)cc1)C(=O)N[C@@H](Cc1ccc(O)cc1)C(=O)N[C@@H](CC(N)=O)C(=O)N[C@@H](Cc1c[nH]c2ccccc12)C(=O)N[C@@H](CC(C)C)C(=O)N[C@H](C(=O)N[C@@H](CCCNC(=N)N)C(=O)N[C@@H](CCC(N)=O)C(=O)N[C@@H](CCCNC(=N)N)C(=O)N[C@@H](Cc1ccc(O)cc1)C(N)=O)[C@@H](C)O)C(C)C) [Compound 11]
0.159 nM	> 5000 nM	> 5000 nM	> 5000 nM	3.22 nM	Isovaleryl-APEK([AEEA-AEEA-γGlu-C18 diacid])PEEEATPEELQRYYVSLRHYYNWLTRQRY-NH2 (SMILES CC(C)CC(=O)N[C@@H](C)C(=O)N1CCC[C@H]1C(=O)N[C@@H](CCC(=O)O)C(=O)N[C@@H](CCCCNC(=O)COCCOCCNC(=O)COCCOCCNC(=O)CC[C@H](NC(=O)CCCCCCCCCCCCCCCCC(=O)O)C(=O)O)C(=O)N1CCC[C@H]1C(=O)N[C@@H](CCC(=O)O)C(=O)N[C@@H](CCC(=O)O)C(=O)N[C@@H](CCC(=O)O)C(=O)N[C@@H](C)C(=O)N[C@H](C(=O)N1CCC[C@H]1C(=O)N[C@@H](CCC(=O)O)C(=O)N[C@@H](CCC(=O)O)C(=O)N[C@@H](CC(C)C)C(=O)N[C@@H](CCC(N)=O)C(=O)N[C@@H](CCCNC(=N)N)C(=O)N[C@@H](Cc1ccc(O)cc1)C(=O)N[C@@H](Cc1ccc(O)cc1)C(=O)N[C@H](C(=O)N[C@@H](CO)C(=O)N[C@@H](CC(C)C)C(=O)N[C@@H](CCCNC(=N)N)C(=O)N[C@@H](Cc1c[nH]cn1)C(=O)N[C@@H](Cc1ccc(O)cc1)C(=O)N[C@@H](Cc1ccc(O)cc1)C(=O)N[C@@H](CC(N)=O)C(=O)N[C@@H](Cc1c[nH]c2ccccc12)C(=O)N[C@@H](CC(C)C)C(=O)N[C@H](C(=O)N[C@@H](CCCNC(=N)N)C(=O)N[C@@H](CCC(N)=O)C(=O)N[C@@H](CCCNC(=N)N)C(=O)N[C@@H](Cc1ccc(O)cc1)C(N)=O)[C@@H](C)O)C(C)C)[C@@H](C)O) [Compound 41]
0.152 nM	> 5000 nM	> 5000 nM	> 5000 nM	3.3 nM	Isovaleryl-APEK([AEEA-AEEA-γGlu-C18 diacid])PEEEASPEELQRYYVSLRHYYNWLTRQRY-NH2 (SMILES CC(C)CC(=O)N[C@@H](C)C(=O)N1CCC[C@H]1C(=O)N[C@@H](CCC(=O)O)C(=O)N[C@@H](CCCCNC(=O)COCCOCCNC(=O)COCCOCCNC(=O)CC[C@H](NC(=O)CCCCCCCCCCCCCCCCC(=O)O)C(=O)O)C(=O)N1CCC[C@H]1C(=O)N[C@@H](CCC(=O)O)C(=O)N[C@@H](CCC(=O)O)C(=O)N[C@@H](CCC(=O)O)C(=O)N[C@@H](C)C(=O)N[C@@H](CO)C(=O)N1CCC[C@H]1C(=O)N[C@@H](CCC(=O)O)C(=O)N[C@@H](CCC(=O)O)C(=O)N[C@@H](CC(C)C)C(=O)N[C@@H](CCC(N)=O)C(=O)N[C@@H](CCCNC(=N)N)C(=O)N[C@@H](Cc1ccc(O)cc1)C(=O)N[C@@H](Cc1ccc(O)cc1)C(=O)N[C@H](C(=O)N[C@@H](CO)C(=O)N[C@@H](CC(C)C)C(=O)N[C@@H](CCCNC(=N)N)C(=O)N[C@@H](Cc1c[nH]cn1)C(=O)N[C@@H](Cc1ccc(O)cc1)C(=O)N[C@@H](Cc1ccc(O)cc1)C(=O)N[C@@H](CC(N)=O)C(=O)N[C@@H](Cc1c[nH]c2ccccc12)C(=O)N[C@@H](CC(C)C)C(=O)N[C@H](C(=O)N[C@@H](CCCNC(=N)N)C(=O)N[C@@H](CCC(N)=O)C(=O)N[C@@H](CCCNC(=N)N)C(=O)N[C@@H](Cc1ccc(O)cc1)C(N)=O)[C@@H](C)O)C(C)C) [Compound 46]
0.167 nM	> 5000 nM	> 5000 nM	> 5000 nM	3.71 nM	Isovaleryl-APEK([AEEA-AEEA-γGlu-C18 diacid])PEEDAEPEELQQYYVSLRHYYNWLTRQRY-NH2 (SMILES CC(C)CC(=O)N[C@@H](C)C(=O)N1CCC[C@H]1C(=O)N[C@@H](CCC(=O)O)C(=O)N[C@@H](CCCCNC(=O)COCCOCCNC(=O)COCCOCCNC(=O)CC[C@H](NC(=O)CCCCCCCCCCCCCCCCC(=O)O)C(=O)O)C(=O)N1CCC[C@H]1C(=O)N[C@@H](CCC(=O)O)C(=O)N[C@@H](CCC(=O)O)C(=O)N[C@@H](CC(=O)O)C(=O)N[C@@H](C)C(=O)N[C@@H](CCC(=O)O)C(=O)N1CCC[C@H]1C(=O)N[C@@H](CCC(=O)O)C(=O)N[C@@H](CCC(=O)O)C(=O)N[C@@H](CC(C)C)C(=O)N[C@@H](CCC(N)=O)C(=O)N[C@@H](CCC(N)=O)C(=O)N[C@@H](Cc1ccc(O)cc1)C(=O)N[C@@H](Cc1ccc(O)cc1)C(=O)N[C@H](C(=O)N[C@@H](CO)C(=O)N[C@@H](CC(C)C)C(=O)N[C@@H](CCCNC(=N)N)C(=O)N[C@@H](Cc1c[nH]cn1)C(=O)N[C@@H](Cc1ccc(O)cc1)C(=O)N[C@@H](Cc1ccc(O)cc1)C(=O)N[C@@H](CC(N)=O)C(=O)N[C@@H](Cc1c[nH]c2ccccc12)C(=O)N[C@@H](CC(C)C)C(=O)N[C@H](C(=O)N[C@@H](CCCNC(=N)N)C(=O)N[C@@H](CCC(N)=O)C(=O)N[C@@H](CCCNC(=N)N)C(=O)N[C@@H](Cc1ccc(O)cc1)C(N)=O)[C@@H](C)O)C(C)C) [Compound 18]
